In patent US20100278834A1 one finds IC50, neutralisation of retroviral pseudotypes, Inhibition of binding (%) and Reciprocal neutralising titre of culture supernatant (reciprocal titre) data, which are given here for eight molecules.

For experiment [1], the target named is hemagglutinin of H5N1 clade 1 strain A/Hong Kong/213/03 (influenza A virus A/Hong Kong/213/03 (H5N1)). In words: cell-based or functional assay.
Experiment [2] concerns the target hemagglutinin of A/Vietnam/1203/04 (H5N1) (influenza A virus A/Vietnam/1203/04 (H5N1)). Kind of experiment: cell-based or functional assay.
The target in experiment [3] is hemagglutinin of H5N1 clade 1 strain VN/1194.04 (influenza A virus VN/1194.04 (H5N1)). Kind of experiment: cell-based or functional assay.
Experiment [4] has as its target H5 hemagglutinin (HA) of H5N1 influenza A virus, strain not stated (influenza A virus (H5N1), strain not stated). Kind of experiment: cross-inhibition of binding to HA; competitor: FLD20.19.
Experiment [5] has the same target. Kind of experiment: cross-inhibition of binding to HA; competitor: FLD194.
Experiment [6] shares this target. In words: cross-inhibition of binding to HA; competitor: FLA3.14.
In experiment [7] the target is hemagglutinin of H5N1 clade 2.2 strain WS/Mong/244/05 (influenza A virus WS/Mong/244/05 (H5N1)). Kind of experiment: cell-based or functional assay.
Experiment [8] has as its target hemagglutinin of A/Indonesia/5/05 (H5N1, clade 2) (influenza A virus A/Indonesia/5/05 (H5N1)). Kind of experiment: cell-based or functional assay.
Experiment [9] has as its target hemagglutinin of H5N1 clade 1 strain HK/491/97 (influenza A virus HK/491/97 (H5N1)). In words: cell-based or functional assay.
Experiment [10] deals with hemagglutinin of H5N1 clade 2.3 strain Anhui/1/05 (influenza A virus Anhui/1/05 (H5N1)). In words: cell-based or functional assay.
Experiment [11] addresses hemagglutinin of H5N1 clade 2.2 strain TY/TY/1/05 (influenza A virus TY/TY/1/05 (H5N1)). In words: cell-based or functional assay.

B1: FLA5.10 (antibody, V domains shown)
VH: QVQLVQSGAEVKEPGSAMKVSCKASGGTFSSDAFCWVRQAPGRGLEWMGGIIPVFQTANYGPNFQGRVTISADVYTTTLYLELSGLTSEDTAVYFCARSGDGYNYYFPLWGQGTLVTVSS
VL: DIQMTQSPSTLSGSVGDRVTITCRASQNIGPWLAWYQQESGKAPKLLISRASILESGVPSRFSGTGTGTEFTLTISSLQPDDFATYYCQHYNAYWGTFGQGTKVEIN
As to B1, the IC50, neutralisation of retroviral pseudotypes in experiment [1] is 0.0025 µg/mL; in experiment [2], 0.024 µg/mL; in experiment [3], 0.026 µg/mL. For the same molecule, the Inhibition of binding (%) in experiment [4] was determined as 100%; in [5], 100%; in experiment [6] it was 0%.

B2: FLD84 (antibody, V domains shown)
VH: QVQLQESGPGLVKPSETLSLICAVSGASISSSYWSWIRQPPGKGLEWIGYIYYSGVTKYNPSLKSRVTLSVDTSKNHFSLKLSYVTAADTAVYYCARNLPDIAVVTAVQDATPVWFDPWGPGTLVSVSS
VL: DIQLTQSPSSLSASVGDRVTITCRASQGIITYLNWYQQKPGKAPKLLIYATYSLQNGVPSRFSGSGSGTDFTLTISSLQPEDFATYYCQQSYSSLMFTFGQGTKLDIK
For B2, the IC50, neutralisation of retroviral pseudotypes turned out to be 0.014 µg/mL in experiment [1]; 0.03 µg/mL in experiment [7]; 0.03 µg/mL in experiment [8]; 0.118 µg/mL in experiment [10]; 0.032 µg/mL in experiment [11]; 0.042 µg/mL in experiment [2]. In experiment [3], this molecule yielded an IC50, neutralisation of retroviral pseudotypes of 0.017 µg/mL. For the same molecule, the Reciprocal neutralising titre of culture supernatant (reciprocal titre) in [8] came to 102; in experiment [9], 40; in experiment [2], 16. Besides, the Inhibition of binding (%) in [4] is 100%; in experiment [5] it was 0%; in [6] it was 0%.

B3: FLD129 (antibody, V domains shown)
VH: EVQLVESGGGLVQPGRSLRLSCAASGFTFSDFWMSWVRQAPGKGLEWVANIDQDGNERFYADSVKGRFTISRDNAKNSLYLQMTSLRADDTAVYYCARDGREGYFYGSGSFYNLKGLNWGQGTLLTVSS
VL: QSVLTQPPSVSAAPGQRVTISCSGTSSNIGKNYVSWYQQLPGAAPKLLIYDNDKRPSGIPDRFSGSKSGTSATLGITGLQTGDEADYYCGTWDSSLSVGMFGGGTRLTVL
Regarding B3, the IC50, neutralisation of retroviral pseudotypes in experiment [1] is 0.0005 µg/mL; in experiment [7] it was 0.003 µg/mL; in experiment [8], 0.678 µg/mL; in experiment [10], 0.016 µg/mL; in experiment [11], 0.006 µg/mL; in experiment [2], 0.0017 µg/mL. In experiment [3], this molecule yielded an IC50, neutralisation of retroviral pseudotypes of 0.0012 µg/mL. The Reciprocal neutralising titre of culture supernatant (reciprocal titre) in [8] is less than 8; in experiment [9], 1450; in experiment [2], 323. Moreover, the figures for the Inhibition of binding (%) in experiment [4], in experiment [5] and in experiment [6] were 100%, 100% and 0%, respectively.

B4: FLD132 (antibody, V domains shown)
VH: EVQLVQSGAELKMPGESLKISCKASGYTFTNYWIGWVRQTPGKGLEWMGIIFPPDSQTSYSPSFQGQVTFSVDNSISVAYIQWSSLKASDTAIYYCARSGIFDWSAPLVEAFDIWGQGTVVTVSS
VL: DIQLTQSPSFLSASVGDGVTITCRASQDIYIYLAWYQQKPGKAPKLLIYAASTLQGGVPSRFSGSGSGTEFTLTINNLQPEDFATYFCQQLNGYPLTFGGGTKVEIK
With B4, the IC50, neutralisation of retroviral pseudotypes in experiment [1] was determined as 0.0005 µg/mL; in experiment [7], 0.001 µg/mL; in experiment [10], 1.8 µg/mL; in [11], 0.001 µg/mL; in experiment [2] it was 0.001 µg/mL; in [3], 0.0016 µg/mL. Further, the Reciprocal neutralising titre of culture supernatant (reciprocal titre) in experiment [8] is less than 8; in [9], 2048; in [2], 1024. The Inhibition of binding (%) in experiment [4] came to 0%; in experiment [5] it was 52%; in [6], 0%.

B5: FLA3.14 (antibody, V domains shown)
VH: EVQLVQSGAEVKKPGESLKISCQASGYSFTSRWIGWVRQMPGKGLEWVGFIYPSDSDVRYSPSFRGQVTISADKSISTAYLQWSSLKASDTAMYFCARLGGNKDYGDYLWYFDLWGRGALVTVSS
VL: EIVMTQSPDTLSVSPGERATLSCRASQSVNRRLAWYQQKPGQAPRLLIHDASTRATGIPARFSGSGSGTEFTLTISSLQSEDFAVYYCQQYDNWLSFGQGTRLEIK
With B5, the IC50, neutralisation of retroviral pseudotypes in experiment [1] amounted to 0.033 µg/mL; in [7], 0.067 µg/mL; in [8] it was 0.012 µg/mL; in experiment [10], 0.172 µg/mL; in experiment [11], 0.076 µg/mL; in experiment [2], 0.065 µg/mL. In experiment [3], this molecule yielded an IC50, neutralisation of retroviral pseudotypes of 0.086 µg/mL. For the same molecule, the Inhibition of binding (%) in experiment [4] was determined as 0%; in [5] it was 100%; in experiment [6], 100%.

B6: FLD93 (antibody, V domains shown)
VH: WWQLVQSGAEVKKPGSSVKVSCKASGGTFSSYDISWVRQAPGQGLEWMGGIIPIYGTANYAQKFQGRVTITADESTSTAYMELSSLRSEDTAVYYCARAGGDSSGYYGALGRFFQHWGQGTLVTVSS
VL: VIWMTQSPSLLSASTGDRVTISCRMSQGISSYLAWYQQKPGKAPELLIHTAYTLKSGVPSRFSGSGSGKDFTLTISGLQSEDFATYYCQQYYSFPYTFGQGTKVEIK
Take B6: the IC50, neutralisation of retroviral pseudotypes in experiment [1] amounted to 0.011 µg/mL; in [7], 0.011 µg/mL; in experiment [8], 0.059 µg/mL; in experiment [11], 0.013 µg/mL; in experiment [2] it was 0.048 µg/mL; in experiment [3] it was 0.022 µg/mL. Moreover, the Reciprocal neutralising titre of culture supernatant (reciprocal titre) in experiment [8] was 406; in experiment [9], 20; in experiment [2], 40. Besides, the values for the Inhibition of binding (%) in experiment [4], in experiment [5] and in experiment [6] were 100%, 0% and 0%, respectively.

B7: FLD122 (antibody, V domains shown)
VH: QFQLVQSGPEVKKPGTSVKVSCKASGYTSTTYGISWVRQVPGQGLEWMGWINPYNGNPHYGQKFQGRVTLTRDTSTNTAYLEILSLRSDDTAVYYCARDGWGQQLVPYYFDYWGQGTLVTVSS
VL: DIVMTQSPLSLPVTPGEPASISCRASQSLLHSNGYNYLDWYLQKPGQSPQLLIQLGSTRASGVPDRFSGSGSGTDFTLEISRVEAEDVGVYYCMQALQLPLAFGQGTRLEIK
As for B7, the IC50, neutralisation of retroviral pseudotypes stood at 0.002 µg/mL in experiment [1]; 0.006 µg/mL in experiment [7]; 0.004 µg/mL in [8]; 0.019 µg/mL in experiment [10]; 0.008 µg/mL in [11]; 0.005 µg/mL in [2]. This molecule also came in with an IC50, neutralisation of retroviral pseudotypes in [3] of 0.006 µg/mL. Further, the figures for the Reciprocal neutralising titre of culture supernatant (reciprocal titre) in experiment [8], in experiment [9] and in experiment [2] were 362, 161 and 40, respectively. In addition, the Inhibition of binding (%) was determined as 100% in experiment [4], 100% in experiment [5] and 65% in experiment [6].

B8: FLD127 (antibody, V domains shown)
VH: QVQLVESGGGVVQPGRSLRLSCAASGFTFSSYGMHWVRQAPGKGLEWVAVIWYDGDNKYYGDSVKGRFTISRDNSKNTLFLQMNSLRAEDTAVYYCAKDTADHGDYVDLGFFDAWGQGTLVTVSS
VL: DIQMTQSPSSVSASVGDRVTITCRASQDVSTWLAWYQLKPGKAPKLLIYAASSLQSGVPSRFSGSGSGTDFTLTVSSLQPEDFATYYCQQANSFPFTFGPGTKVDIK
On to B8, for which the IC50, neutralisation of retroviral pseudotypes in experiment [1] came out at 0.75 µg/mL; in experiment [2], 0.013 µg/mL; in experiment [3], 0.019 µg/mL. The values for the Reciprocal neutralising titre of culture supernatant (reciprocal titre) in experiment [8], in experiment [9] and in experiment [2] were less than 8, 102 and 81, respectively. The Inhibition of binding (%) worked out at 100% in experiment [4], 0% in [5] and 0% in [6].
